Results from PMC6345845, “Phosphatidylinositol 4-kinase IIIβ (PI4KB) forms highly flexible heterocomplexes that include ACBD3, 14-3-3, and Rab11 proteins” (Scientific Reports, 2019).
Blank lines part the entries; values can stand above or below the binder they belong to.

Experiments:
[1] = target: the molecule itself; assay: AUC; sedimentation velocity, SEC buffer, 20 °C, 42 000 rpm; P-PI4KB alone (20 µM) and with Rab11; stoichiometries independent of Rab11 nucleotide state
pseudo-wt PI4KB = target: T1, pseudo-wt PI4KB (human, UniProt Q9UBF8 1-816, internal deletion of a disordered loop (residues 423-522)); assay: SAXS; ACBD3 and pseudo-wt PI4KB mixed 1:1, dialyzed against 20 mM Tris pH 8, 200 mM NaCl, 2 mM TCEP, 1% glycerol; 3.0 and 4.5 mg/ml; conditions: both partners purified
T1 construct: phosphatidylinositol 4-kinase IIIβ (PI4KB) with intact N-terminus, containing only the internal deletion (residues 423-522)
T1 sequence (Q9UBF8 other isoform, or with tags, fused parts or gaps with the stated changes): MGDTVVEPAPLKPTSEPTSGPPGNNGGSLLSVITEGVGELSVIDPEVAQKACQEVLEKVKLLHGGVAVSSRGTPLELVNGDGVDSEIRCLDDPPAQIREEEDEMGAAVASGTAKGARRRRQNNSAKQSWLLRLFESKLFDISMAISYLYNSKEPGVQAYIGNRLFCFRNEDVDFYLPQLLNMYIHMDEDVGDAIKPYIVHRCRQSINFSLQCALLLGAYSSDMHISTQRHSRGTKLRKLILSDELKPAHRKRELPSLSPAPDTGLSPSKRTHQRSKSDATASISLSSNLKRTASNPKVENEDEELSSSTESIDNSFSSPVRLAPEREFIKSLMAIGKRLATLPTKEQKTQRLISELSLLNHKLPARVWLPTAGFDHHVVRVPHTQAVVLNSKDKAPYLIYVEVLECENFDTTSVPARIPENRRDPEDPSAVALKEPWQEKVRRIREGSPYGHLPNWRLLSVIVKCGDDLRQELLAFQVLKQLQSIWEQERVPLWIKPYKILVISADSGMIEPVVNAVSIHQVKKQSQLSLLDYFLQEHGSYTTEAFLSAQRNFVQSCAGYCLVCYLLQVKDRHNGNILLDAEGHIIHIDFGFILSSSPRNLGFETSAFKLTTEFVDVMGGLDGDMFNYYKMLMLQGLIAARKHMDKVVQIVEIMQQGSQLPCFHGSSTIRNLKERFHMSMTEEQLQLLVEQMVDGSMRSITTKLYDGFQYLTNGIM

[2] = target: T2, pseudo-wt PI4KB labeled with Atto488 (human, UniProt Q9UBF8 1-816, internal deletion of a disordered loop (residues 423-522), Atto488 (maleimide labelling)); assay: GUV recruitment (confocal microscopy); ACBD3 tethered to GUVs with DGS-NTA(Ni); Atto488-PI4KB and mCherry-Rab11 in solution, each approximately 50 nM; conditions: both partners purified
T2 construct: phosphatidylinositol 4-kinase IIIβ (PI4KB) with intact N-terminus, containing only the internal deletion (residues 423-522); also called Atto488 labeled PI4KB; wild type PI4KB
T2 sequence (Q9UBF8 other isoform, or with tags, fused parts or gaps with the stated changes): as above

B1: phosphorylated PI4KB (residues 128-799, internal deletion 423-522, T292R, phosphorylated at S294 by PKA) (enzyme, human, UniProt Q9UBF8 128-799, looked up)
chain: SWLLRLFESKLFDISMAISYLYNSKEPGVQAYIGNRLFCFRNEDVDFYLPQLLNMYIHMDEDVGDAIKPYIVHRCRQSINFSLQCALLLGAYSSDMHISTQRHSRGTKLRKLILSDELKPAHRKRELPSLSPAPDTGLSPSKRTHQRSKSDATASISLSSNLKRRASNPKVENEDEELSSSTESIDNSFSSPVRLAPEREFIKSLMAIGKRLATLPTKEQKTQRLISELSLLNHKLPARVWLPTAGFDHHVVRVPHTQAVVLNSKDKAPYLIYVEVLECENFDTTSVPARIPENRRDPEDPSAVALKEPWQEKVRRIREGSPYGHLPNWRLLSVIVKCGDDLRQELLAFQVLKQLQSIWEQERVPLWIKPYKILVISADSGMIEPVVNAVSIHQVKKQSQLSLLDYFLQEHGSYTTEAFLSAQRNFVQSCAGYCLVCYLLQVKDRHNGNILLDAEGHIIHIDFGFILSSSPRNLGFETSAFKLTTEFVDVMGGLDGDMFNYYKMLMLQGLIAARKHMDKVVQIVEIMQQGSQLPCFHGSSTIRNLKERFHMSMTEEQLQLLVEQMVDGSMRS
modifications: phosphoserine at 294 (in vitro by protein kinase A)
notes: phosphatidylinositol 4-kinase IIIβ (PI4KB), residues 128-799 with internal deletion of a disordered loop (residues 423-522) and T292R; also called P-PI4KB; phosphatidylinositol 4-kinase IIIβ; source: phosphorylated in vitro by PKA; Mono Q, SEC
- stoichiometry N [1]: 2

- binding result (pseudo-wt PI4KB): binds
B2: ACBD3 (Acyl-CoA-binding domain-containing protein), tag cleaved (natural protein, UniProt Q9H3P7 1-528, looked up)
chain: MAAVLNAERLEVSVDGLTLSPDPEERPGAEGAPLLPPPLPPPSPPGSGRGPGASGEQPEPGEAAAGGAAEEARRLEQRWGFGLEELYGLALRFFKEKDGKAFHPTYEEKLKLVALHKQVLMGPYNPDTCPEVGFFDVLGNDRRREWAALGNMSKEDAMVEFVKLLNRCCHLFSTYVASHKIEKEEQEKKRKEEEERRRREEEERERLQKEEEKRRREEEERLRREEEERRRIEEERLRLEQQKQQIMAALNSQTAVQFQQYAAQQYPGNYEQQQILIRQLQEQHYQQYMQQLYQVQLAQQQAALQKQQEVVVAGSSLPTSSKVNATVPSNMMSVNGQAKTHTDSSEKELEPEAAEEALENGPKESLPVIAAPSMWTRPQIKDFKEKIQQDADSVITVGRGEVVTVRVPTHEEGSYLFWEFATDNYDIGFGVYFEWTDSPNTAVSVHVSESSDDDEEEEENIGCEEKAKKNANKPLLDEIVPVYRRDCHEEVYAGSHQYPGRGVYLLKFDNSYSLWRSKSVYYRVYYTR
notes: ACBD3 with ACBD, CAR, Q and GOLD domains; no limits of the construct are printed; not shown: His6-GB1, N-terminal, cleaved

- binding result [2]: binds
B3: ACBD3 with N-terminal 6xHis-GB1 tag (for GUV reconstitution) (natural protein, UniProt Q9H3P7 1-528, looked up)
chain: MAAVLNAERLEVSVDGLTLSPDPEERPGAEGAPLLPPPLPPPSPPGSGRGPGASGEQPEPGEAAAGGAAEEARRLEQRWGFGLEELYGLALRFFKEKDGKAFHPTYEEKLKLVALHKQVLMGPYNPDTCPEVGFFDVLGNDRRREWAALGNMSKEDAMVEFVKLLNRCCHLFSTYVASHKIEKEEQEKKRKEEEERRRREEEERERLQKEEEKRRREEEERLRREEEERRRIEEERLRLEQQKQQIMAALNSQTAVQFQQYAAQQYPGNYEQQQILIRQLQEQHYQQYMQQLYQVQLAQQQAALQKQQEVVVAGSSLPTSSKVNATVPSNMMSVNGQAKTHTDSSEKELEPEAAEEALENGPKESLPVIAAPSMWTRPQIKDFKEKIQQDADSVITVGRGEVVTVRVPTHEEGSYLFWEFATDNYDIGFGVYFEWTDSPNTAVSVHVSESSDDDEEEEENIGCEEKAKKNANKPLLDEIVPVYRRDCHEEVYAGSHQYPGRGVYLLKFDNSYSLWRSKSVYYRVYYTR
notes: ACBD3 with ACBD, CAR, Q and GOLD domains; Tethered to GUVs that contain DGS-NTA(Ni); also called membrane tethered ACBD3; not shown: His6-GB1, N-terminal, kept
